Target: VEGF-A (UniProt P15692 1-395)
Assay: SPR; unpublished data of the authors; format and conditions not told
Conditions: both partners purified

Kd: 0.429 nM
B1: Conbercept (Fc fusion)
chain: GRPFVEMYSEIPEIIHMTEGRELVIPCRVTSPNITVTLKKFPLDTLIPDGKRIIWDSRKGFIISNATYKEIGLLTCEATVNGHLYKTNYLTHRQTNTIIDVVLSPSHGIELSVGEKLVLNCTARTELNVGIDFNWEYPSSKHQHKKLVNRDLKTQSGSEMKKFLSTLTIDGVTRSDQGLYTCAASSGLMTKKNSTFVRVHEKPFVAFGSGMESLVEATVGERVRIPAKYLGYPPPEIKWYKNGIPLESNHTIKAGHVLTIMEVSERDTGNYTVILTNPISKEKQSHVVSLVVYVPP
modifications: seven N-glycosylation sites, all occupied (the N in the tryptic peptides 29-39 VTSPNITVTLK, 60-69 GFIISNATYK, 117-124 LVLNCTAR, 193-198 NSTFVR, 242-253 NGIPLESNHTIK, 267-281 DTGNYTVILTNPISK, 372-380 …); two inter-chain disulfide bonds at the Fc hinge
